Experimental data published in patent US10711246B2, “Methods and compositions for generating epicardium cells” (UNIVERSITY HEALTH NETWORK, priority 2013, dated 2020).
“Also recorded” adds a separate entry of the source.

Legend:
hESC-derived mesoderm [1] = experiment: Cardiomyocyte specification from hESC-derived day 4 mesoderm, cTnT+ cells at day 15 by flow cytometry; format: cell-based, human; settings: for cardiomyocyte development in presence of Wnt and activin/nodal/TGFβ inhibitor: specification step, contracting cTnT/SIRPA cells at day 15; for cardiomyocyte development / specification: added to day 4 mesoderm during specification step, high levels of BMP4 or inhibitors, analysed day 15
Description: FIG. 1. Cardiomyocyte specification from hESCs. Scheme of the protocol used to differentiate hESCs towards the cardiomyocyte lineage highlighting the three main stages of development: 1) mesoderm induction, 2) cardiovascular specification and 3) maturation. Cells from ActivinA/BMP4-induced day 4 embryoid bodies (EBs) are plated as a monolayer on gelatin coated wells. […] Following specification, the cultures were maintained in VEGF for 9 days and then analyzed for the presence of cTnT+ cardiomyocytes by flow cytometry. FIG. 2. […] (a) Flow cytometric analyses showing the presence of the KDR+ and PDGFRα+ populations at day 4 and day 5 and the cTnT+ expression on day 15 of culture following no treatment (control), treatment with BMP4 (10 ng/ml) or the BMP4 inhibitor Noggin (400 ng/ml). (b) Total cell numbers per well at day 15 in the cultures treated as above. Error bars represent standard deviation from the mean from three experiments. FIG. 3. […] Graphical representation of flow cytometry analyses indicating the percent cTnT^+ cells in day 15 cultures generated from populations treated with the indicated amounts of BMP4 or Noggin. NT=no treatment. Bars represent standard deviation from the mean of the values from three independent experiments (N=3); *P≤0.05, **P≤0.01 when compared to no treatment. FIG. 9. […] Error bars represent standard deviation from the mean of the values from three independent experiments (N=3); *P≤0.05, **P≤0.01 when compared to the ‘no Wnt treatment’ (NT) control in context of the indicated manipulation of the BMP pathway. (b) qRT-PCR-based analyses of WT1 expression on day 15 cultures generated from untreated cells (control) or cells treated with either BMP4 (10 ng/ml) or DM (4 μM) in combination with the indicated amounts of DKK or CHIR. Values are relative to the housekeeping gene TBP. Error bars represent standard deviation from the mean of the values from three independent experiments (N=3); *P≤0.05, **P≤0.01 when compared to the ‘no Wnt treatment’ (NT) control in the context of the indicated manipulation of the BMP pathway. (c) Flow cytometry analyses showing percent cTnT+ cells and qRT-PCR analyses for WT1 expression in day 15 cultures generated from untreated cells (control) or cells treated with either BMP4 (10 ng/ml) or DM (4 μM) in combination with the indicated amounts of XAV939 (XAV). Error bars represent standard deviation from the mean of the values from three independent experiments (N=3); *P≤0.05, **P≤0.01 when compared to no Wnt treatment (see FIGS. 9a and 9b) in the context of the specific BMP treatment. (d) Flow cytometry analyses showing percent cTnT+ cells and qRT-PCR analyses of WT1 expression in day 15 cultures generated from untreated cells (control) or cells treated with either BMP4 (10 ng/ml) or DM (4 μM) in combination with the indicated amounts of IWP2. Error bars represent standard deviation from the mean of the values from three independent experiments (N=3); *P≤0.05, **P≤0.01 when compared to no Wnt treatment (see FIGS. 9a and 9b) in the context of the specific BMP treatment. Media consisting of StemPro-34 (Life Technologies) supplemented with […] penicillin/streptomycin, 2 mM L-glutamine, 1 mM ascorbic acid, and 4 3 10_4 M monothioglycerol (MTG) (Sigma). […] The Activin/Nodal/TGF-b and BMP inhibition experiments were carried out with SB-431542 (Tocris, Ellisville, Mo.) and dorsomorphin (Sigma), respectively. For experiments involving Wnt signaling, CHIR-99021 (Stemgent), XAV-939 (R&D), or IWP2(R&D) were used at the indicated concentrations. Cultures were maintained in a 5% CO2, 5% O2, 90% N2 environment for the first 10-12 days and were then transferred into a 5% CO2 air environment for the remainder of the culture period.

hESC-derived mesoderm [2] = experiment: qRT-PCR and immunostaining of myocardial and epicardial markers (WT1, TBX18) after treatment of mesoderm; format: cell-based, human; settings: for WT1 expression in BMP4-treated cells: higher concentrations of DKK1 or small molecule antagonists, CHIR
Excerpt: Values are relative to the housekeeping gene TBP. Error bars represent standard deviation from the mean of the values from three independent experiments (N=3); *P≤0.05, **P≤0.01 when compared to no treatment. FIG. 5. […] Error bars represent standard deviation from the mean of the values from three independent experiments (N=3); *P≤0.05, **P≤0.01 when compared to the ‘no Wnt treatment’ (NT) control in context of the indicated manipulation of the BMP pathway. (b) qRT-PCR-based analyses of WT1 expression on day 15 cultures generated from untreated cells (control) or cells treated with either BMP4 (10 ng/ml) or DM (4 μM) in combination with the indicated amounts of DKK or CHIR. Values are relative to the housekeeping gene TBP. Error bars represent standard deviation from the mean of the values from three independent experiments (N=3); *P≤0.05, **P≤0.01 when compared to the ‘no Wnt treatment’ (NT) control in the context of the indicated manipulation of the BMP pathway. (c) Flow cytometry analyses showing percent cTnT+ cells and qRT-PCR analyses for WT1 expression in day 15 cultures generated from untreated cells (control) or cells treated with either BMP4 (10 ng/ml) or DM (4 μM) in combination with the indicated amounts of XAV939 (XAV). Error bars represent standard deviation from the mean of the values from three independent experiments (N=3); *P≤0.05, **P≤0.01 when compared to no Wnt treatment (see FIGS. 9a and 9b) in the context of the specific BMP treatment. (d) Flow cytometry analyses showing percent cTnT+ cells and qRT-PCR analyses of WT1 expression in day 15 cultures generated from untreated cells (control) or cells treated with either BMP4 (10 ng/ml) or DM (4 μM) in combination with the indicated amounts of IWP2. Error bars represent standard deviation from the mean of the values from three independent experiments (N=3); *P≤0.05, **P≤0.01 when compared to no Wnt treatment (see FIGS. 9a and 9b) in the context of the specific BMP treatment. […] As a first approach to identify these cells, we analyzed them for expression of a panel of myocardial and epicardial genes over a 6-15 day time course. […] In vivo, the epicardial cells form an epithelial layer that surrounds the developing heart^18. In addition to their distinct morphology, epithelial cells in culture are characterized by their ability to form tight junctions that can be monitored by the presence of the zona occludins 1 (ZO1) protein.

[3] = titration during specification step, FIG. 3
[4] = qRT-PCR, 6-15 day time course, cells from treated mesoderm

## Cc1c[nH]c(-c2cnc(NCCNc3ccc(C#N)cn3)nc2-c2ccc(Cl)cc2Cl)n1 [CHIR99021, reference compound]
hESC-derived mesoderm [1]; Wnt activation in presence of dorsomorphin
  cardiomyocyte development in DM-treated cultures: unaffected
hESC-derived mesoderm [1]; Wnt activation, no BMP pathway regulators
  cardiomyocyte development in the endogenous BMP control: inhibited cardiomyocyte development
hESC-derived mesoderm [2]; qRT-PCR day 15
  WT1 expression in DM treated cultures: no change in WT1 expression
  WT1 expression in the endogenous BMP population: increased levels
  WT1 expression in BMP4-treated cells: did not impact WT1 expression

## NC(=O)c1ccc(-c2nc(-c3ccc4c(c3)OCO4)c(-c3ccccn3)[nH]2)cc1 [SB431542, reference compound]
hESC-derived mesoderm [1]
  cardiomyocyte development in presence of Wnt and activin/nodal/TGFβ inhibitor: cardiomyocytes routinely develop

## Oc1nc(-c2ccc(C(F)(F)F)cc2)nc2c1CSCC2 [XAV939, reference compound]
hESC-derived mesoderm [2]; qRT-PCR day 15
  WT1 expression in BMP4-treated cells: decreased WT1 expression

## Cc1ccc2nc(NC(=O)CSc3nc4c(c(=O)n3-c3ccccc3)SCC4)sc2c1 [IWP2, reference compound]
hESC-derived mesoderm [2]; qRT-PCR day 15
  WT1 expression in BMP4-treated cells: decreased WT1 expression

B1: noggin (protein, UniProt Q13253 28-232, looked up)
Noggin: QHYLHIRPAPSDNLPLVDLIEHPDPIFDPKEKDLNETLLRSLLGGHYDPGFMATSPPEDRPGGGGGAAGGAEDLAELDQLLRQRPSGAMPSEIKGLEFSEGLAQGKKQRLSKKLRRKLQMWLWSQTFCPVLYAWNDLGSRFWPRYVKVGSCFSKRSCSVPEGMVCKPSKSVHLTVLRWRCQRRGGQRCGWIPIQYPIISECKCSC
hESC-derived mesoderm [1]
  cardiomyocyte development / specification: completely blocked cardiomyocyte development; also recorded: inhibited cardiomyocyte specification
hESC-derived mesoderm [1]; flow cytometry after treatment of day 4 mesoderm
  levels of KDR (mesoderm development): decrease the levels of KDR to some extent
hESC-derived mesoderm [1]; [3]
  low levels at which cardiomyocyte development is achieved: 12.5 to 200 ng/mL
hESC-derived mesoderm [2]; qRT-PCR, 6-15 day time course
  expression of panel of myocardial and epicardial genes: did not express significant levels of any of these genes

B2: DKK1 (protein, UniProt O94907 32-266, looked up)
Dickkopf-related protein 1: TLNSVLNSNAIKNLPPPLGGAAGHPGSAVSAAPGILYPGGNKYQTIDNYQPYPCAEDEECGTDEYCASPTRGGDAGVQICLACRKRRKRCMRHAMCCPGNYCKNGICVSSDQNHFRGEIEETITESFGNDHSTLDGYSRRTTLSSKMYHTKGQEGSVCLRSSDCASGLCCARHFWSKICKPVLKEGQVCTKHRRKGSHGLEIFQRCYCGEGLSCRIQKDHHQASNSSRLHTCQRH
hESC-derived mesoderm [1]
  cardiomyocyte development in presence of Wnt and activin/nodal/TGFβ inhibitor: cardiomyocytes routinely develop

B3: Bone Morphogenetic Protein 4 (protein, UniProt P12644 293-408, looked up)
Bone morphogenetic protein 4: SPKHHSQRARKKNKNCRRHSLYVDFSDVGWNDWIVAPPGYQAFYCHGDCPFPLADHLNSTNHAIVQTLVNSVNSSIPKACCVPTELSAISMLYLDEYDKVVLKNYQEMVVEGCGCR
notes: Bone Morphogenetic Protein 4, human BMP4 (R&D Systems)
hESC-derived mesoderm [1]
  cardiomyocyte development / specification: completely blocked cardiomyocyte development
hESC-derived mesoderm [1]; [3]
  concentrations that inhibited cardiomyocyte specification: ≥ 0.63 ng/mL
  low levels at which cardiomyocyte development is achieved: 0.31 ng/mL
hESC-derived mesoderm [2]; day 15 of culture
  WT1 (nuclear) by immunostaining: detected only in cells induced with BMP4
hESC-derived mesoderm [2]; [4]
  TBX18 expression: predominantly
  WT1 expression: exclusively
hESC-derived mesoderm [2]; qRT-PCR, cells from treated mesoderm
  BNC1 and ANXA8 expression: highly expressed
